Values quoted from earlier work in PMC7687380.

Molecular target: LRP1 (Homo sapiens) (UniProt Q07954)
Chain of UniProt Q07954 (Q07954 20-4544): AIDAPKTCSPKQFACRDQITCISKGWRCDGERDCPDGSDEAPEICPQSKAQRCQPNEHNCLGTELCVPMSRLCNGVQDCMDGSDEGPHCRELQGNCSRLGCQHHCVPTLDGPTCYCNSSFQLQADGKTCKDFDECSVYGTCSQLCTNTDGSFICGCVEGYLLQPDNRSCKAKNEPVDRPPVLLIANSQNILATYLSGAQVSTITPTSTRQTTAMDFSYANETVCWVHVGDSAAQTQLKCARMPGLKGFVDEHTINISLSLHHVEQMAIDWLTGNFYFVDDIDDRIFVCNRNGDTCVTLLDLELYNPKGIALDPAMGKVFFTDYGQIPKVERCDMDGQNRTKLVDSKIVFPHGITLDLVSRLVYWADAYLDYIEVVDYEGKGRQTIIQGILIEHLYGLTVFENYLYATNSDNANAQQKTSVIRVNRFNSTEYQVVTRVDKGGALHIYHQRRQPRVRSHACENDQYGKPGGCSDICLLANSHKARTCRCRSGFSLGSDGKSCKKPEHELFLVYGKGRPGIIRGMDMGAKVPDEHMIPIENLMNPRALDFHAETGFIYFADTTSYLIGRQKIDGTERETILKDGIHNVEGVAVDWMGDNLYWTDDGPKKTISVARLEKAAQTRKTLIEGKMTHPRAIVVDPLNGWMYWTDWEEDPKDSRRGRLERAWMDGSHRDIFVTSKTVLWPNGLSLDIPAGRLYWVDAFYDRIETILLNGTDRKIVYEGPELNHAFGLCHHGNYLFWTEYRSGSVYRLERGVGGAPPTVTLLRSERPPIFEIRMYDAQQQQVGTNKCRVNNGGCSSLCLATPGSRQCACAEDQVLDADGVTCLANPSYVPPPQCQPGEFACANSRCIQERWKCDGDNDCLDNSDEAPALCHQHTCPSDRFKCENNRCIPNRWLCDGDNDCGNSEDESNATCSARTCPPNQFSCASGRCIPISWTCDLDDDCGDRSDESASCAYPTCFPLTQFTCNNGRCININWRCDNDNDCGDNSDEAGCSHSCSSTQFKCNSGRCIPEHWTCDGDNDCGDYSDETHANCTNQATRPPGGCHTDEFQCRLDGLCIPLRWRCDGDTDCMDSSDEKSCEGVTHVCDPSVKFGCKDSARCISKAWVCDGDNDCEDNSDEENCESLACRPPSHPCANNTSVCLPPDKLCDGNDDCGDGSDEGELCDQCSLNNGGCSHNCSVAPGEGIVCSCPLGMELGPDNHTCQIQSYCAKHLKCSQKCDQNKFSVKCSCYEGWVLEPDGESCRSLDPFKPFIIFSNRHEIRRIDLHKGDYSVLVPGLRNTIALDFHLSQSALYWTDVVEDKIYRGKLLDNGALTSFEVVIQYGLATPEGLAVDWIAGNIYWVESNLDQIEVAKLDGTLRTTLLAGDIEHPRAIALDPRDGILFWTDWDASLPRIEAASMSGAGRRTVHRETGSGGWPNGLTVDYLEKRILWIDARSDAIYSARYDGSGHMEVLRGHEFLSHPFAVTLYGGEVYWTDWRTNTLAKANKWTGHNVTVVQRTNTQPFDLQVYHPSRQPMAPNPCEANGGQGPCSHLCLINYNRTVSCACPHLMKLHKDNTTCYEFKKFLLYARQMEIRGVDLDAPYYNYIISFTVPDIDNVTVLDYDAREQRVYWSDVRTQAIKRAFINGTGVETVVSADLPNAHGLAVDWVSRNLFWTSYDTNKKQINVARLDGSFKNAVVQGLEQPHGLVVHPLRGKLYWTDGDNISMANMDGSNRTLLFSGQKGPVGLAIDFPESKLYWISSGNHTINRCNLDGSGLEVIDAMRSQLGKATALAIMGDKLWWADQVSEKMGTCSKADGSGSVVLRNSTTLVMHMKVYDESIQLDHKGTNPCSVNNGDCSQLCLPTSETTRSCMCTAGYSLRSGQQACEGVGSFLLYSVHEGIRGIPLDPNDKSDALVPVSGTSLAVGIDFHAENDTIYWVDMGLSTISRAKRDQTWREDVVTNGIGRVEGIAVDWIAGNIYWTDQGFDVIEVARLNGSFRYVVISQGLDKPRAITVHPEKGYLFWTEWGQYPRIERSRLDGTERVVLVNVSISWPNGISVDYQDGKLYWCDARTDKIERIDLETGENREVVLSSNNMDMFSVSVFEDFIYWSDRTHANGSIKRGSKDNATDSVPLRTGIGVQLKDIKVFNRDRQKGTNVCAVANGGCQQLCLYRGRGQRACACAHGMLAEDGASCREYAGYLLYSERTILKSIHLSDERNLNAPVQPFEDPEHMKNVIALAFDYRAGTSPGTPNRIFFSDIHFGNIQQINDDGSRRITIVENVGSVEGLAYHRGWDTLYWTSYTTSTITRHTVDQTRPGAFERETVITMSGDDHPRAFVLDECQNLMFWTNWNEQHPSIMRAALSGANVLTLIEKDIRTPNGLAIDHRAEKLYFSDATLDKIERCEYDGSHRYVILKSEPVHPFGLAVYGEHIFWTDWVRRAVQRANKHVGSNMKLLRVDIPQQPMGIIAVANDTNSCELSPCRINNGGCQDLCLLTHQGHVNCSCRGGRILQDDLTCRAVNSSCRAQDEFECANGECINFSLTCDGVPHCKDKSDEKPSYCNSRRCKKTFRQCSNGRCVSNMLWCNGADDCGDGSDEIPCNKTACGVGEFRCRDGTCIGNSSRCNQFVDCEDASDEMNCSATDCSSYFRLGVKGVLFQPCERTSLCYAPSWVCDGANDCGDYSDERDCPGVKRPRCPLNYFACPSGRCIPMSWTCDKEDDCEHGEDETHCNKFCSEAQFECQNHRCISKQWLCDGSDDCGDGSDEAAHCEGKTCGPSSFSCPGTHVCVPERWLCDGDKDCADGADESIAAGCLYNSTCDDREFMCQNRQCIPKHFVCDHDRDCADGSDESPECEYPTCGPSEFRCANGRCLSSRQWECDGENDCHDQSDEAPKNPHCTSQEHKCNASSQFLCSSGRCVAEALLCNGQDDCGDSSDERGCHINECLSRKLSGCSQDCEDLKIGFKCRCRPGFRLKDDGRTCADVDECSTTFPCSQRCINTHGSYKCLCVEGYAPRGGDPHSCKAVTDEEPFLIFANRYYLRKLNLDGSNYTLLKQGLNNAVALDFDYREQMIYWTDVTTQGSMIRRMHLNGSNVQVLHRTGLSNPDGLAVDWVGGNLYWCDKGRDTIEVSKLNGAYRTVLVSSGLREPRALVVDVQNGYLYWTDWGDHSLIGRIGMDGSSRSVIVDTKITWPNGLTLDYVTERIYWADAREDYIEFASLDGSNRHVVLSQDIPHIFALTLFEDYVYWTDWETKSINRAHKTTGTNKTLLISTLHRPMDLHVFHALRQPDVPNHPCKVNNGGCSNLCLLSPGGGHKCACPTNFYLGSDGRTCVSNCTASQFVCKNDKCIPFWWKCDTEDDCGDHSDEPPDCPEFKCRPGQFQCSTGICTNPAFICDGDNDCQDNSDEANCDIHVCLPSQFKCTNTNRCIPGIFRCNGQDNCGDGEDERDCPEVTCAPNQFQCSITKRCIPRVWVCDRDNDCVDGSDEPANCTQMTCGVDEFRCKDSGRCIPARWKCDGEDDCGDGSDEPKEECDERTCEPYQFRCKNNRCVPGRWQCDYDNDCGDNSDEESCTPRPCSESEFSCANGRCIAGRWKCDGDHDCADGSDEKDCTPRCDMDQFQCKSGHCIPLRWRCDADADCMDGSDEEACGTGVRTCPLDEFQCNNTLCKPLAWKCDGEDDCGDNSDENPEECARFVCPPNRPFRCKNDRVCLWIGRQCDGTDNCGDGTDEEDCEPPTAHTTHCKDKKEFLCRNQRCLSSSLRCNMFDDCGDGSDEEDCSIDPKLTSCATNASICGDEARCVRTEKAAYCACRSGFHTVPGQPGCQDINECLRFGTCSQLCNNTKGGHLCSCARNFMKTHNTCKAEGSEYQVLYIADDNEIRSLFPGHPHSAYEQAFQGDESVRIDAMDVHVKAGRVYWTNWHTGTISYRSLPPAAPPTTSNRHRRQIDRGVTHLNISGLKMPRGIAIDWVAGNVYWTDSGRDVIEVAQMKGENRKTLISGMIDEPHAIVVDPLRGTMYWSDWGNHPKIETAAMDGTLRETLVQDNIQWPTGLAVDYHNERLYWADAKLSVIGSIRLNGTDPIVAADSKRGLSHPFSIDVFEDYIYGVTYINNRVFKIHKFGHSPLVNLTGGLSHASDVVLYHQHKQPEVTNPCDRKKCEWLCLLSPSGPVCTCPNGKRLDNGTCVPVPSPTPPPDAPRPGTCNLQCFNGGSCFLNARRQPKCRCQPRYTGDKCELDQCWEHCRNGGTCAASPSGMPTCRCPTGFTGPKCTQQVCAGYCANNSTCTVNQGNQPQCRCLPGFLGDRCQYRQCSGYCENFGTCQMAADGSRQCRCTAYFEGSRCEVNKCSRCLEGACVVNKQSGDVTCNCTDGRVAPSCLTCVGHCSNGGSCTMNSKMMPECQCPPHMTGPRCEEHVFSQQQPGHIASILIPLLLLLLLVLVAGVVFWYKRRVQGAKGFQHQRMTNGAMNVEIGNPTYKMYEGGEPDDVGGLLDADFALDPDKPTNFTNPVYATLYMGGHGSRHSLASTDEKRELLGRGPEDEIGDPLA

Substance: RAP (from UniProt P30533)
- Kd: 9 nM
